Experimental data from publication doi:10.1101/2021.06.07.447473.

Target: eIF2B(αβδγε)2 decamer, eIF2Bβ Avi-tagged and biotinylated (human) (UniProt Q14232)
Assay: SPR

Work on “Sandfly Fever Sicilian virus (SFSV) NSs protein with C-terminal 6xHIS tag (NSs::6xHIS) (natural protein)” yielded a Kd of 43 nM.
